Laboratory results: patent publication US20170166649A1 (MAX DELBR CK CENTRUM F R MOLEKULARE MEDIZIN IN DER …, published 2017)

Tests used:
[1] = molecular target: T1, human CD269 (BCMA) on human multiple myeloma cells (MM.1S, RPMI-8226) (human, UniProt Q02223 1-184); experiment: flow cytometry on MM.1S cells
T1 construct: whole, on cells; also called BCMA-positive MM.1S cells; CD269-positive MM.1S cells
T1 sequence (looked up): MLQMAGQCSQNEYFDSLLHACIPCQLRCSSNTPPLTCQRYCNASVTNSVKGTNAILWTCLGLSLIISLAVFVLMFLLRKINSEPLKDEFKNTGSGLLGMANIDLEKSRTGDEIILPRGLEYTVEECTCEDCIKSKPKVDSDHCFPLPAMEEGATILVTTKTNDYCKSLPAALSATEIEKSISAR

[2] = molecular target: T2, extracellular domain of human CD269 (BCMA, TNFRSF17) (human, UniProt Q02223 4-54); experiment: complex isolated by size exclusion chromatography and crystallised
T2 construct: also called hBCMA; human BCMA
T2 sequence: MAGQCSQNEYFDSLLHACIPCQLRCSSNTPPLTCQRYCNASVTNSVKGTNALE
Procedure: (Fab)₂ fragments were generated from full length J22.9-xi IgG by incubation with pepsin. J22.9-xi was passed over a PD-10 buffer exchange column into 50 mM sodium acetate, pH 3.5 and pepsin added at 30 μg per milligram J22.9-xi. Incubation at 37° C. for 2.5 hours was sufficient to completely digest the fragment crystallizable (Fc) region and pepsin was inactivated by exchange over a PD-10 column into PBS (pH 7.2). The reduction of the (Fab)₂ fragments to individual Fabs was accomplished in PBS by addition of 2-Mercaptoethylamine (50 mM) in the presence of 5 mM ethylenediaminetetraacetic acid (EDTA). After incubation for 90 minutes at 37° C., the reduced cysteines were blocked by alkylation with 500 μM iodoacetamide for 30 minutes followed by buffer exchange into fresh PBS. The Fab fragments were combined with 1.5 molar equivalents of purified BCMA and the complexes isolated by size exclusion chromatography on a Superdex 75 16/60 column.
Concentrated complexes were supplemented with 0.5 molar equivalents of pure BCMA to ensure saturation and were subjected to crystallization screening. Initial Fab:BCMA crystallization conditions were identified from commercial screens (Qiagen) in 96-well sitting drop format plates using a Gryphon pipetting robot (200 nl drops) and optimized in 24 well plates in hanging drops (2-3 ul). […]

[3] = molecular target: T2, extracellular domain of human CD269 …; experiment: SPR, value printed beside the trace for 90.0 nM BCMA; neither a quantity name nor a unit is printed, and the five values average to the mean Kd of 54 pM of paragraph 196
[4] = molecular target: T2, extracellular domain of human CD269 …; experiment: SPR, value printed beside the trace for 10.0 nM BCMA; neither a quantity name nor a unit is printed, and the five values average to the mean Kd of 54 pM of paragraph 196
[5] = molecular target: T2, extracellular domain of human CD269 …; experiment: ELISA on plates coated with human BCMA (1 ug/ml), % of max
Procedure: (§1) ELISA was carried out as described herein using BCMA-coated microtiter plates (1 microg/ml).
(§2) Microtiter plates were coated with 1 μg/ml of the extracellular domain of human or cynomolgous BCMA (hBCMA or cyBCMA, respectively). Coated BCMA was detected with serial dilution of J22.9-xi, J22.9-H, J22.9-ISY and J22.9-FSY ranging from 0.26 pM to 500 nM. Binding of antibodies to the coated BCMA was detected with horseradish peroxidase (HRP)-conjugated goat anti-human secondary antibody (Jackson ImmunoResearch, 109-035-098, dilution 1:5,000).

[6] = molecular target: T3, extracellular domain of cynomolgous BCMA (cynomolgus, UniProt A0A2K5UD97 1-53); experiment: SPR, IgG immobilised, cynomolgus BCMA in mobile phase (n = 2)
T3 construct: extracellular domain; also called cyBCMA; cynoBCMA
Procedure: (§3) FIG. 12: SPR raw data: Binding affinities of the chimeric J22.9-xi and humanized variants to human (A) and cynomolgus (B) BCMA was measured by Surface Plasmon Resonance (SPR) Spectrometry. IgGs were immobilized via amine chemistry to a Proteon GLH sensor chip and binding measured with BCMA in the mobile phase. The order of raw data traces in the graph corresponds to the order to samples listed in the legend of the figure.
(§4) SPR was performed on a ProteonXPR36 using phosphate buffered saline supplemented with 0.005% Tween-20 (PBST). Whole IgG at a concentration of 15 ug/ml was immobilized to a Proteon GLH sensor chip using standard amine chemistry according to the manufacturer's instructions. For binding experiments, human or cynomolgus BCMA in PBST was used as the mobile phase.

[7] = molecular target: T2, extracellular domain of human CD269 …; experiment: SPR, IgG immobilised, human BCMA in mobile phase (n = 3)
Procedure: as §3, §4

[8] = molecular target: T2, extracellular domain of human CD269 …; experiment: SPR, value printed beside the trace for 1.1 nM BCMA; neither a quantity name nor a unit is printed, and the five values average to the mean Kd of 54 pM of paragraph 196
[9] = molecular target: T2, extracellular domain of human CD269 …; experiment: SPR; mean Kd of FIG. 1c, initial SPR characterisation (not the n = 3 series of Table 6)
[10] = molecular target: T3, extracellular domain of cynomolgous BCMA; experiment: ELISA on plates coated with cynomolgus BCMA (1 ug/ml), % of max
Procedure: as §1, §2

[11] = molecular target: T2, extracellular domain of human CD269 …; experiment: SPR, value printed beside the trace for 3.3 nM BCMA; neither a quantity name nor a unit is printed, and the five values average to the mean Kd of 54 pM of paragraph 196
[12] = molecular target: T2, extracellular domain of human CD269 …; experiment: SPR, value printed beside the trace for 30.0 nM BCMA; neither a quantity name nor a unit is printed, and the five values average to the mean Kd of 54 pM of paragraph 196
[13] = molecular target: T2, extracellular domain of human CD269 …; experiment: ELISA of hybridoma J22.9 supernatant on BCMA-coated microtiter plates at the given days of culture

T3 sequence (A0A2K5UD97 entry or part of it): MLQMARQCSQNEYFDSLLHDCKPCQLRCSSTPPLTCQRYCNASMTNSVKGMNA

B1: J22.9-xi-N-glycan (deglycosylated J22.9-xi) (antibody, human IgG1, V domains shown)
VH: QVQLQQSGGGLVQPGGSLKLSCAASGIDFSRYWMSWVRRAPGKGLEWIGEINPDSSTINYAPSLKDKFIISRDNAKNTLYLQMSKVRSEDTALYYCASLYYDYGDAMDYWGQGTSVTVSS
VL: DIVMTQSQRFMTTSVGDRVSVTCKASQSVDSNVAWYQQKPRQSPKALIFSASLRFSGVPARFTGSGSGTDFTLTISNLQSEDLAEYFCQQYNNYPLTFGAGTKLELKR
modifications: N-linked oligosaccharide chains at Asn297 of the heavy chain removed with PNGase F
notes: also called J22.9-xi without N-glycans
binding result [1]: binds

B2: Fab fragment prepared from J22.9-xi (Fab, V domains shown)
VH: QVQLQQSGGGLVQPGGSLKLSCAASGIDFSRYWMSWVRRAPGKGLEWIGEINPDSSTINYAPSLKDKFIISRDNAKNTLYLQMSKVRSEDTALYYCASLYYDYGDAMDYWGQGTSVTVSS
VL: DIVMTQSQRFMTTSVGDRVSVTCKASQSVDSNVAWYQQKPRQSPKALIFSASLRFSGVPARFTGSGSGTDFTLTISNLQSEDLAEYFCQQYNNYPLTFGAGTKLELKR
modifications: reduced cysteines blocked by alkylation with iodoacetamide
notes: also called J22.9-xi Fab
binding result [2]: binds

B3: chimeric antibody J22.9-xi (antibody, V domains shown)
VH: QVQLQQSGGGLVQPGGSLKLSCAASGIDFSRYWMSWVRRAPGKGLEWIGEINPDSSTINYAPSLKDKFIISRDNAKNTLYLQMSKVRSEDTALYYCASLYYDYGDAMDYWGQGTSVTVSS
VL: DIVMTQSQRFMTTSVGDRVSVTCKASQSVDSNVAWYQQKPRQSPKALIFSASLRFSGVPARFTGSGSGTDFTLTISNLQSEDLAEYFCQQYNNYPLTFGAGTKLELKR
notes: Full length IgG made in 293-6E cells
Kd [3]: 0.088 nM | Kd [4]: 0.0555 nM | EC50 (read off the curve) [5]: ~0.2 nM | Kd [6]: 2.7 nM | Kd [7]: 0.28 nM | Kd [8]: 0.021 nM | Kd [9]: 0.054 nM | EC50 (read off the curve) [10]: ~0.2 nM | Kd [11]: 0.0362 nM | Kd [12]: 0.0695 nM

B4: antibody in the supernatant of mouse hybridoma J22.9 (antibody, V domains shown)
VH: QVQLQQSGGGLVQPGGSLKLSCAASGIDFSRYWMSWVRRAPGKGLEWIGEINPDSSTINYAPSLKDKFIISRDNAKNTLYLQMSKVRSEDTALYYCASLYYDYGDAMDYWGQGTSVTVSS
VL: DIVMTQSQRFMTTSVGDRVSVTCKASQSVDSNVAWYQQKPRQSPKALIFSASLRFSGVPARFTGSGSGTDFTLTISNLQSEDLAEYFCQQYNNYPLTFGAGTKLELKR
notes: Mouse antibody; also called hybridoma J22.9 supernatant
binding result [13]: binds
